Measurements reported in patent US20110256142A1 (Genmab, published 2011).

Assays:
[1] = target: T1, purified EGFR (Sigma-Aldrich, cat no. E3641) (UniProt P00533 25-1210, limits assumed); experiment: ELISA, plate coated with purified EGFR, anti-human IgG Fc-HRP detection
T1 construct: Bought preparation coated on ELISA plates

[2] = target: T2, EGFR-vIII deletion mutant expressed on transfected Ba/F3 and A431 cells (UniProt P00533 25-1210); experiment: flow cytometry on Ba/F3 cells transfected with EGFR-vIII, FITC anti-human IgG F(ab')2 detection
T2 construct: whole, on cells; Deletion variant, not expressible as substitutions; also called de2-7 EGFR

EC50 [1] [µg/mL]	Binder	binding result [2]
0.081	Fully human IgG1,κ antibody 018 (P- or LC1006-018) (antibody, V domains shown, Human IgG1,κ; P1006-018 uncloned, LC1006-018 cloned hybridoma; also called P1006-018) VH: EVQLVESGGGLVQPGGSLRLSCAASGFTFSSYWMNWVRQAPGKGLEWVANIKKDGSEKYYVDSVKGRFTISRDNAKNSLYLQMNSLRAEDTAVYYCARDLGWGWGWYFDLWGRGTLVTVSS VL: not shown	–
0.117	Fully human IgG1,κ antibody 003 (P- or LC1006-003) (antibody, V domains shown, Human IgG1,κ; P1006-003 is the hybridoma before cloning, LC1006-003 the clone by limiting dilution; also called P1006-003) VH: EVQLVESGGGLVQPGGSLRLSCAASGFTFSSYWMTWVRQAPGKGLEWVANIQQDGSEKNYLDSVKGRFTISRDNAKNSLSLQMNSLRAEDTAVYYCARTYSGFEDFWGQGTLVTVSS VL: EIVLTQSPATLSLSPGERATLSCRASQSVSSYLAWYQQKPGQAPRLLIFDASNRATGIPARFSGSGSGTDFTLTISSLEPEDFAVYYCQQRSNWPPWTFGQGTKVEIK	no binding (tested: saturating concentrations)
2.46	Fully human IgG1,κ antibody 008 (P- or LC1006-008) (antibody, V domains shown, Human IgG1,κ; P1006-008 uncloned, LC1006-008 cloned hybridoma; also called P1006-008) VH: EVQLVESGGGLVQPGGSLRLSCAASGFTFSSYWMSWVRQAPGKGLEWVANIKQDGSEENYVDSVKGRFTVSRDNAKNSLYLQMNSLRAEDTAVYYCARTYSGFEDYWGQGTLVTVSS VL: EIVLTQSPATLSLSPGERATLSCRASQSVSSYLAWYQQKPGQAPRLLIFDASNRATGIPARFSGSGSGTDFTLTISSLEPEDFAVYYCQQRSNWPPWTFGQGTKVEIK	no binding (tested: saturating concentrations)
